Laboratory results as given in patent US5770384, “Method for determining compound interaction with E2 binding proteins” (New England Medical Center Hospitals, Inc, dated 1998).

Target: BPV-1 E2 protein, wild type, full length (amino acids 1 to 410) (bovine papillomavirus (BPV-1), UniProt P03122)
Assay: alternative two hybrid assay in yeast, LexA/LacZ reporter pSH18-34, GAL/XGAL plate

B1: LexA DBD alone (YEplac181GLexA202) (other)
chain: MKALTARQQEVFDLIRDHISQTGMPPTRAEIAQRLGFRSPNAAEEHLKALARKGVIEIVSGASRGIRLLQEEEEGLPLVGRVAAGEPLLAQQHIEGHYQVDPSLFKPNADFLLRVSGMSMKDIGIMDGDLLAVHKTQDVRNGQVVVARIDDEVTVKRLKKQGNKVELLPENSEFKPIVVDLRQQSFTIEGLAVGVIRNGDWL
binding result: no binding
